{
  "source": "the nanobody polyreactivity screen of Harvey et al. (2022)",
  "data": [
    {"test": "yeast display, Sf9 membrane polyspecificity reagent, FACS + sequencing; frameworks hold sequencing errors", "method_in_brief": "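Galactose-induced (36–48 hours) yeast carrying a synthetic nanobody display library were exposed to 10% biotinylated, detergent-solubilized Sf9 membrane reagent at 4 °C for 1 hour. FACS followed streptavidin microbead enrichment, using low and high (top ~1%) gates for expression (anti-HA) and reagent binding (streptavidin). Colony PCR, MiSeq 2 × 250 sequencing and CDR-length filtering followed. Labels for polyreactivity reflect the gate of origin.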", "values": [
      {"sequence": "QVQLVESGGGLVQAGGTIRISSAPSGRTLGCNAMGRSRQAPGKEWELVSAISYSGGDTTYADSVKGRFTISRDKAKNTVYLQMNSLKPEDTAVYYCAARGDYYVYAYNRRFVYLGQGTQVTVSS", "polyreactivity (PSR sort gate)": "low polyreactivity"},
      {"sequence": "QVQLVESGGGLVQAGGTLPLTCAASGSTYYVYAMGCDRQAPGKEREFVAAITGSDGSTYYADSVMGRFTISRDNAKNTVYLQMNSLKPEDTAVYYCAADYYLQNYETGYGYWGQGTQVTVSS", "polyreactivity (PSR sort gate)": "low polyreactivity"},
      {"sequence": "QVQLVESGGGLVQAGGTLRLRCAASGFTFRYYVMRWYRQAPGKERELVAAITSGGSTNYADSVKGRFSISRDNAQNTVYLLMNSLKPEDTAVYYCAAGLSYRHNYWGQGTQVTVSS", "polyreactivity (PSR sort gate)": "low polyreactivity"},
      {"sequence": "QVQLVESGGGLVQAGGTLRLSCAASGFIFGINAMGWYRQAPGQERELVAAIATGDRTNYADSVTGRFTISRDNAKNTVYLQMNSLKPEHTAVYYCAAGVHWDRGDYWGQGTQVTVST", "polyreactivity (PSR sort gate)": "low polyreactivity"},
      {"sequence": "QVQLVESGGGLVQAGGTLRLSCAASGFIINRYAMGWYRQPPGKERELVAAISWSGGRTYYADSVKGRFTISRDNAKNTVSLQMNSLKPEDTAVYYCAADSYTSLDGRDYWGQGTQVTVSS", "polyreactivity (PSR sort gate)": "high polyreactivity"},
      {"sequence": "QVQLVESGGGLVQAGGTLRLSCAASGFIISRNAMGWYRQAPRKERELVAAITWPGGTTYYADSVKGRFTISRDNAKNTVYLQMISLKPEDTAVYYSAADEYGPHTFSPEYDSWGQGTQVTVSS", "polyreactivity (PSR sort gate)": "low polyreactivity"},
      {"sequence": "QVQLVESGGGLVQAGGTLRLSCAASGFTFSINAMGWSRQAPGKERELVAGISWSGGITYYADSVKGRFTISRDNAKNTVYLQMNSLKPEDTAVYYCNTDYGLTTPVVWDDYWGQGTQVTVSS", "polyreactivity (PSR sort gate)": "low polyreactivity"},
      {"sequence": "QVQLVESGGGLVQAGGTLRLSCAASGGIFGGYAMGWYRQAPGTEGELVAVITSGGSTYYADSVKGRFTISRDNAKNTVYLQMNSLKPEDTAVYYCAADGHSYSYSTYDYWGQGTQVTVSS", "polyreactivity (PSR sort gate)": "low polyreactivity"},
      {"sequence": "QVQLVESGGGLVQAGGTLRLSCAASGIIFGVYAMGWYRQAPGKERELVAAIDGNGSSTYYADSVKGRFTISRDTAKNTVYLQMNSLKPEDTAVYYCPAGYWSYLYYWYDFDYWGQGTQVTVSS", "polyreactivity (PSR sort gate)": "low polyreactivity"},
      {"sequence": "QVQLVESGGGLVQAGGTLRLSCAASGITFDYNAMGWYRQAPGKERELVATISDTGSTNYADSVKGRFTISRDNAKNTVYLQMNSLKPEDTAVYYCAADGLGDYHPKWEYQEYDYWGQGTQVTVSS", "polyreactivity (PSR sort gate)": "low polyreactivity"},
      {"sequence": "QVQLVESGGGLVQAGGTLRLSCAASGITFTGNDMGWYRQAPGKERELVAAISNRGGSTYYADSVKGRFTISRDNAKNTVYLQMNSLKPEDTAVYYCRTSTPRRVSGNYWGQGTQVTVSS", "polyreactivity (PSR sort gate)": "high polyreactivity"},
      {"sequence": "QVQLVESGGGLVQAGGTLRLSCAASGLISYFYGMGWYRQAPGKERELVAGIDTGSSTNYADSVKGRFTISRDNAKNTVYLQMNSLKPEDTAVYYCAADSVSKYGSDYWGQGTQVTVSS", "polyreactivity (PSR sort gate)": "low polyreactivity"},
      {"sequence": "QVQLVESGGGLVQAGGTLRLSCAASGLTFGYNAMVWYRQAPRKERELVATISYSGGRTYYADSVKGRFTISRDTAKNTVYLQMNSLKPEDTAVYSCAARRASGPYGFGYWGQGTQVTVSS", "polyreactivity (PSR sort gate)": "high polyreactivity"},
      {"sequence": "QVQLVESGGGLVQAGGTLRLSCAASGLTFKSYDMGWYRHAPGKERELVAAITSGVSTHYADSVKGRFTISRDNAKNTVYLQMNSLKPEDTAVYYCAADYSWYDPYWIMDYWGQGTQVTVSS", "polyreactivity (PSR sort gate)": "low polyreactivity"},
      {"sequence": "QVQLVESGGGLVQAGGTLRLSCAASGNTFRYYAMGWYRQSPGKERELVARITGRAGSTYYADSVKGRFTISRDNAKKTVYLQMNSLKPEDTAVYYCAAEFYYGFDYWGQGTQVTVSS", "polyreactivity (PSR sort gate)": "high polyreactivity"},
      {"sequence": "QVQLVESGGGLVQAGGTLRLSCAASGRIFPAYVMGWYRQAPGKERELVATIDNGGGTYYADSVKGRFTISRDNAKNTVYLQMNSLKPEDTAVYYCARDRHVRWGLKMDYWGQGTQVTVSS", "polyreactivity (PSR sort gate)": "low polyreactivity"},
      {"sequence": "QVQLVESGGGLVQAGGTLRLSCAASGRIFPRNVLGWYRQAPGKEWELVAAISSRGTRTYYADSVKGRFTISRDNAKNTVYLQMNSLKPEDTPVYYCAADGPYEGYDDWGQGTQVTVSS", "polyreactivity (PSR sort gate)": "high polyreactivity"},
      {"sequence": "QVQLVESGGGLVQAGGTLRLSCAASGRTFSGYAMGWYRQAPGKERELVAAIDRGDGTNYADSVKGRFTISRDNAKNTVYLQMNSLKPEDTAVYYCAADYSYGSTSHTYTGFDYWGQGTQVTVSS", "polyreactivity (PSR sort gate)": "low polyreactivity"},
      {"sequence": "QVQLVESGGGLVQAGGTLRLSCAASGSIFGKNAMGWYRQARGKERELVAAITWSGGSTYYADSVKGRFTISRDNAKNTVSLQINSLKPEDTAVYYCNAVRVRVTSHRIRQLDYGYWGQGTQVTVSS", "polyreactivity (PSR sort gate)": "low polyreactivity"},
      {"sequence": "QVQLVESGGGLVQAGGTLRLSCAASGSIFRGNGMGWYRQAPGKERELVAAISRSGGRTYYADSVKGRFTFSRDNAKNTVYLQMNSLKPEDTAVYYCAAVPPYNYRFRVYYWGQGSQVTVSS", "polyreactivity (PSR sort gate)": "high polyreactivity"},
      {"sequence": "QVQLVESGGGLVQAGGTLRLSCAASGSIFRYYAMGWYRQAPGKERELVATITSTGGSTYYADSVKGRFTISRDNAKNTVYLQMNSLKPEDTAVYYCAARNKLYVTVRGYYLSGYWGQGTQVTVSS", "polyreactivity (PSR sort gate)": "high polyreactivity"},
      {"sequence": "QVQLVESGGGLVQAGGTLRLSCAASGSIFRYYTMGWYRQAPGKERELVAAITWDGDSTYYADSVKGRFTISLDNAKNTVYLQMNSLKPEDTAVYYCNADDYGPGFDYWGQGTQVTVSS", "polyreactivity (PSR sort gate)": "low polyreactivity"},
      {"sequence": "QVQLVESGGGLVQAGGTLRLSCAASGSILGGNAMGWYRQAPGKERELVAAITFSGGGTYYADSVKGRFTISRDNAKNTVYLQMNSLKPEDTAVYYCAADKDGYTYEFDYWGQGTQVTVSS", "polyreactivity (PSR sort gate)": "low polyreactivity"},
      {"sequence": "QVQLVESGGGLVQAGGTLRLSCAASGSILTPNAMGWSRQAPGKERELVAAISDNAGSTYYADSVKGRFTISRDNAKNTVYLQMNSLKPEDTAVYYCAAEYWEYNLVYLVYYYSMDYWGQGTQVTVSS", "polyreactivity (PSR sort gate)": "high polyreactivity"},
      {"sequence": "QVQLVESGGGLVQAGGTLRLSCAASGSIVQSYAMGWYRQAPGKERELVAAITERGGSTYYADSVKGRFTISRDNAKNTVYLQMNSLKPEDTAVYYCAAKAVGLGKSWRGDDYWGQGTQVTVSS", "polyreactivity (PSR sort gate)": "low polyreactivity"},
      {"sequence": "QVQLVESGGGLVQAGGTLRLSCAASGSTFAANAMGWYRQAPGKERELVAAITSSGGSTYYADSVKGRFTISRDNAKNTVYLQMNSLKPEDTAVYYCNTDIERYVRIYDSWGQGTQVTVSS", "polyreactivity (PSR sort gate)": "low polyreactivity"},
      {"sequence": "QVQLVESGGGLVQAGGTLRLSCAASGSTFGVYAMGWYRQAPGKERELVAAIDNSGDDTYYADSVKGRFTISRDNAKNTVYLQMNSLKPEDTAVYYCAADFWDGRSTLNFWGQGTQVTVSS", "polyreactivity (PSR sort gate)": "high polyreactivity"},
      {"sequence": "QVQLVESGGGLVQAGGTLRLSCAASGSTFVDYAMGWYRQAPGKERELVAGINGSGGSTYYADSVKGRFTISRDNAKNTVYLQMNSLKPEDTAVYYCAKDGSNRLALPAWDYNYWGQGTQVTVSS", "polyreactivity (PSR sort gate)": "low polyreactivity"},
      {"sequence": "QVQLVESGGGLVQAGGTLRLSCAASGSTISYYTMGWYRQAPGKERELVAAISRSGTRTYYADSVKGRFTISRDNPKNTVYLQMNSLKPEDTAFFYCAARSPFYSYTPGYEYWGQGTQVTVSS", "polyreactivity (PSR sort gate)": "high polyreactivity"},
      {"sequence": "QVQLVESGGGLVQAGGTLRLSCAASGSTQWGYDMGWYRQATGKERELVAAISSSGSNTRYADSVKGRFTISRDNEKNTVYLQLNRLKPEDTAVYYCTARTYLRGKTDYGYDSWGQGTHVTVSS", "polyreactivity (PSR sort gate)": "high polyreactivity"},
      {"sequence": "QVQLVESGGGLVQAGGTLRLSCAASGSTYEVYAMGWYRQAPGTERELVAVITGNGGSTNYADSVKGRFTISRDNAKNTVYLQMNSLKPEDTAVYYCAADFYTFVRSDYWGQGTQVTVSS", "polyreactivity (PSR sort gate)": "low polyreactivity"},
      {"sequence": "QVQLVESGGGLVQAGGTLRLSCAASGYTFPLYAMGWYRQAPVKERELVADINIGGASTYYADSVKGRFTISRDNATNTVYLQMNSLKPEDTAVYDCAKEYYDGYFPTFDYDYFGQGTQVTVSS", "polyreactivity (PSR sort gate)": "low polyreactivity"},
      {"sequence": "QVQLVESGGGLVQAGGTLRLSCDASGFIFPGYAKGWSRNATGKQREFVAAISRSGGSTYYADSVKGRFTISRDNAKNTVYLQMNSLKPEDTAVYYCATRARGYTGYDYWGQGTQVTVSS", "polyreactivity (PSR sort gate)": "high polyreactivity"},
      {"sequence": "QVQLVESGGGLVQAGGTLRLSGAASGFIFPQYAMGWYRQAPGKERELVAAISTGGGSTYYADSVKGRFTISRDNAKNTVYLQMNSLKPEDTAVYYCNARPKYDSGHYYWGQGTQVTVSS", "polyreactivity (PSR sort gate)": "high polyreactivity"},
      {"sequence": "QVQLVESGGGLVQAGGTLRLSGAASGRTLRRYAMGWYRQAPGKARELVATISGRGGSTYYADSVKGRFTISRDNAKNTVYLQMNSLKPEDTAVYYCAADSVLSKYDYWGQGTQVTVSS", "polyreactivity (PSR sort gate)": "high polyreactivity"},
      {"sequence": "QVQLVESGGGLVQAGGTLSLSCAATGRNLSYAMGWYRQAPGKERELVAAMNWSGGTTYYADSVKGRFTISRDNAKNTVYLQMNSLKQEDTAVYYCAARVRGTGYNSWGQGTQLTVSS", "polyreactivity (PSR sort gate)": "high polyreactivity"},
      {"sequence": "QVQLVESGGGLVQAGRILRLSCAASGIILGRYAMGWYRQAHGKERELVAAITASGGRTYYADSVKGRFTISRDNAKNTVYLQMNSLKPEDTAVYYCNTVYWGYKSHYDYWGQGTQVTVSS", "polyreactivity (PSR sort gate)": "high polyreactivity"},
      {"sequence": "QVQLVESGGGLVQAGRSHRLSCAASGFTFFDNAMGWYRQAPGKERELVAAITWSDGSTYYADSVKGRFTISRDNAKNTVYLQMNSLKPEDTAVYYCNKRGWWDLRHDYWGQGTHVTVSS", "polyreactivity (PSR sort gate)": "low polyreactivity"},
      {"sequence": "QVQLVESGGGLVQAGRSLRLICAASGRISVFYTMGWYRQAPGKERELVAVIRTSGGRTNYADSVKGRFTISRDNAKNTVYLQMNSLKPEDTAVYYCAARVVRYGFKYYYWGQGTQVTVSS", "polyreactivity (PSR sort gate)": "low polyreactivity"},
      {"sequence": "QVQLVESGGGLVQAGRSLRLICAASGSTFPSYAMGWYRQAPGNERELVAAINSGGGTNYADAVKGRFTISRDNAKNTVYLQMNSLKPEDTAVFYCAKSRYDYTKTEGGYWGQATQVTVSS", "polyreactivity (PSR sort gate)": "low polyreactivity"},
      {"sequence": "QVQLVESGGGLVQAGRSLRLICAASGSTFYVNAMGWYRQAPGKEREFVAAIRWPGGSTYYADSVKWRFTISRDNAKNTFYVQMNSLKPEDTAVFYCAARIKYRYVWGQGTQVTVSS", "polyreactivity (PSR sort gate)": "low polyreactivity"},
      {"sequence": "QVQLVESGGGLVQAGRSLRLNCAASGLTFYKYAMGWYRQAPGKERELVAAISYRGGSTYYADSVKGRFTISRDNAKNTVSLQLNSLKPEVTAVYYCAAGYPYGGDYWGQGTQVTVSS", "polyreactivity (PSR sort gate)": "high polyreactivity"},
      {"sequence": "QVQLVESGGGLVQAGRSLRLSCAASGFIFGHNAMGWSRQAPGKERELFAAIRSRGGSTYYADSVKGRFTISRDNAKNTVYLQMNSLKREDTAVYYCAADGAVVSSSRKFVYWGQGTQVTVSS", "polyreactivity (PSR sort gate)": "low polyreactivity"}
    ]}
  ]
}
